From US20230167458A1, “FORSKOLIN-INDUCIBLE PROMOTERS AND HYPOXIA-INDUCIBLE PROMOTERS” (ASKLEPIOS BIOPHARMACEUTICAL, INC., priority 2020, published 2023)

Experiments:
CHO-GS-KSV1 cell line = assay: SEAP expression in stably transfected CHO-GS-KSV1, forskolin or NKH477 induction; format: cell-based, chinese hamster; settings: stable CHO-GS-KSV1, SEAP, forskolin or NKH477
Procedure: The forskolin-inducible promoters were then tested in a stably transfected CHO-GS-KSV1 cell line.
• CD-CHO media (Life technologies, CAT #10743029) • Corning 125 mL Polycarbonate Erlenmeyer Flask with Vent Cap (CAT #734-1885). • Gene Pulser® Electroporation Cuvettes, 0.4 cm gap (BioRad, CAT #165-2088) • Gene Pulser Xcell Total System (BioRad, CAT, #1652660) • GS-vector DNA ([…] in 100 μL TE buffer) linearised with Sca1 • Suspension cultures of CHOK1SV GS-KO host cells.
Cell suspensions of 6×10^5 cells per mL were incubated on an orbital shaker set at 8% CO2, 20% O2, 37° C., 85% relative humidity and 140 rpm overnight. 2.86×10^7 cells were centrifuged at 200 g for 3 minutes. Media was then aspirated and cell pellet resuspended in 2 mL fresh CD-CHO media to obtain a concentration of 1.43×10^7 cells per mL. 700 μL of cell suspension was added to each of two electroporation cuvettes each containing […] of linearised DNA in 100 μL of sterile TE buffer (Thermofisher, 12090015). Each cuvette was electroporated, delivering a single pulse of 300V, […] with resistance to infinity. Immediately after delivery of pulse electroplated cells were transferred to Erlenmeyer 125 mL flask containing 20 mL of CD-CHO media pre-warmed to 37° C. Electroporated cells from two cuvettes are combined into a single 125 mL flask to generate one pool of cells. Cells are cultured on an orbital shaker set at 8% CO2, 20% O2, 37° C., 85% relative humidity and 140 rpm. Cells are transferred to fresh CD-CHO media 24 hours after transfection and cell cultures monitored and given fresh CD-CHO media every 2-4 days. Usually after about 10-14 days cell numbers will be high enough to start passaging.
The transfected DNA was the pXC-17.4 expression vector (Lonza Biologics plc) where one of the promoter constructs (or a control promoter (CMV-IE) have been cloned upstream of the secreted alkaline phosphatase (SEAP) gene, which had been cloned into the multiple cloning site within the vector expression cassette. Promoters were closed into the pXC-17.4 vector using Gibson assembly. The pXC-17.4 expression vector is designed for making stable cell lines in the CHO-GSK1SV cell line as it contains the […] gene which has been knocked out of the cell line. Therefore, selection of cells in glutamine drop-out medium will select for cells that have stably integrated the plasmid.
The responsiveness of the RTV-019 promoter to different concentrations of forskolin and […] was tested in the stably transfected CHO-GS-KSV1 cell line. To this end, the stably transfected CHO-GS cells were seeded at 500,000 cells/ml and allowed to grow for 24 hrs. At this point the cells were induced by addition of the respective concentrations of forskolin and NKH477 and SEAP expression was measured as described below after 24 hours.
The promoter activity and inducibility of FMP-02, FORCYB-001, RTV-017, FORCSV-10, FOR-CMC-009, FLP-01 and RTV-019 were also tested in the stably transfected CHO-GS-KSV1 cell line. To this end, the stably transfected CHO-GS cells were seeded at 500,000 cells/ml and allowed to grow for 24 hrs. At this point the cells were exposed to […] forskolin or […] NKH477 for 24 hours. After this point, the SEAP activity in the medium was assessed as described below.
SEAP Reporter Gene Assay, chemiluminescent (Roche, CAT #11 779 842 001) was used to measure SEAP activity as per the manufacturer's protocol. All reagents and samples were fully pre-equilibrated at room temperature. Culture supernatant was collected from the stably transfected CHO-GS at the specific time points (0 h and 24 h). The supernatant was diluted 1:4 in dilution buffer and heat treated at 65° C. for 30 minutes. The heat-treated sample was then centrifuged for 30 s at maximum speed. 50 μl of the heat-treated sample was then added to 5 μl of inactivation buffer and incubated for 5 min at room temperature. 50 μl of substrate reagent was then added and incubated for 10 min at room temperature. […]

HEK293-F = assay: Luciferase time course after forskolin induction, transient transfection of suspension HEK293-F; format: cell-based, human; settings: 20 µM forskolin
Procedure: The tested promoters were synthesised directly upstream of the ATG of PM-RQ plasmid and the suspension cell lines were transiently transfected with the PM-RQ plasmid.
40 ml of cells were grown in a 250 ml vented Erlenmeyer flask (Sigma-Aldrich CLS431144) at 37° C., 20% O2, 8% CO2 with agitation at 100 rpm. Cells were seeded as described in the manufacturer's instructions (300,000 cells/ml). HEK293-F were obtained from Thermofisher, R79007.
One day before transfection, the cells were counted using a haemocytometer and split to 500,000 cells/ml.
On the day of transfection, the cells are seeded to 1,000,000 cells/ml in 500 μl of appropriate medium (Freestyle 293 expression medium, 12338002) in a 24 well plate. […] of DNA per well was then added to 10 μl of OptiMem medium (Thermofisher; 11058021) and incubated for 5 minutes at room temperature.
Concurrently, 0.625 μl of Max reagent (Thermofisher, 16447100) was made up to 10 μl by addition of OptiMem and incubated for 5 minutes at room temperature. After this incubation, both mixes were added to the same tube and incubated at room temperature for 25-30 minutes. […]
24 hours after transfection, the promoters were induced by addition of […] forskolin and luciferase activity was measured 0, 3, 5 and 24 hours after induction. Luciferase activity was measured as previously described.

B1: FMP-02: synthetic forskolin-inducible promoter, SEQ ID NO: 41; 8× AP1(1) TFBS and MinTK minimal promoter (nucleic acid)
DNA: TGAGTCAGATGATGCGTAGCTAGTAGTTGAGTCAGATGATGCGTAGCTAGTAGTTGAGTCAGATGATGCGTAGCTAGTAGTTGAGTCAGATGATGCGTAGCTAGTAGTTGAGTCAGATGATGCGTAGCTAGTAGTTGAGTCAGATGATGCGTAGCTAGTAGTTGAGTCAGATGATGCGTAGCTAGTAGTTGAGTCAGTAGTCGTATGCTGATGCGCAGTTAGCGTAGCTGAGGTACCGTCGACGATATCGGATCCTTCGCATATTAAGGTGACGCGTGTGGCCTCGAACACCGAGCGACCCTGCAGCGACCCGCTTAA
modifications: Synp-FMP-02
notes: 8× AP1(1) TFBS and MinTK minimal promoter
- relative rank of promoter strength (CHO-GS-KSV1 cell line): weakest
- relative rank of promoter (fold induction/strength) (HEK293-F): weakest
